Source: article PMC12005789, “Geniposidic Acid Targeting FXR “S332 and H447” Mediated Conformational Change to Upregulate CYPs and miR‐19a‐3p to Ameliorate Drug‐Induced Liver Injury” (Advanced Science, 2025)
Ends that are not written are not given here.

T1: Farnesoid X receptor (FXR) (Homo sapiens, UniProt Q96RI1)
T1 construct: gene NR1H4; human FXR LBD (residues 248–486), N-terminal 8×His-Tag
T1 sequence (Q96RI1 248-486): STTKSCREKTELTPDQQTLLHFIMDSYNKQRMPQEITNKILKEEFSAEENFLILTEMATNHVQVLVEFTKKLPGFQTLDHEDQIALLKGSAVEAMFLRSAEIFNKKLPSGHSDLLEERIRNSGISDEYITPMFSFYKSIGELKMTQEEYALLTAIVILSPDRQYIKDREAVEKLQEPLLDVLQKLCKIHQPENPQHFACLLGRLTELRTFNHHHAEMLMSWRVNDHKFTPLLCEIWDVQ

T2: human FXR LBD wild-type recombinant protein (human)
T2 chain: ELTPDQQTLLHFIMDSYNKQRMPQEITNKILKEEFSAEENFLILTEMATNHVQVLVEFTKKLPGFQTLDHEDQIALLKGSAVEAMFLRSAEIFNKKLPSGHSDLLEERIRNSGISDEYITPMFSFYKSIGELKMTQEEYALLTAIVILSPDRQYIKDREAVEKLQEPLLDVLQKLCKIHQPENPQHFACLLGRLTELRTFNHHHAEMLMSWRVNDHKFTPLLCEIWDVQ

T3: human FXR LBD H447A recombinant protein (human)
T3 chain: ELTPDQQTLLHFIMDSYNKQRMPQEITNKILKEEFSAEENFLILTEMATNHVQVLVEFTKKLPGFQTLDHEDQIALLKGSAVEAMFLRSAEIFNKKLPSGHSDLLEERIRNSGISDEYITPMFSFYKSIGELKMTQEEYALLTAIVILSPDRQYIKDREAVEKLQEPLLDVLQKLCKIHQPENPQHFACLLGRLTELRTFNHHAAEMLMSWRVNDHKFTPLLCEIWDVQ


Assays:
[1] = molecular target: T1, Farnesoid X receptor (FXR); assay: SPR (Biacore T200, CM5 chip with FXR LBD WT); supported by DSF, CETSA and AlphaScreen; type: binding
[2] = molecular target: T2, human FXR LBD wild-type recombinant …; assay: SPR; with GW4064
[3] = molecular target: T3, human FXR LBD H447A recombinant protein; assay: SPR; with GPA
[4] = molecular target: T2, human FXR LBD wild-type recombinant …; assay: SPR; with GPA

Molecule | Kd [1] | Kd [2] | Kd [3] | Kd [4]
O=C(O)C1=CO[C@@H](O[C@@H]2O[C@H](CO)[C@@H](O)[C@H](O)[C@H]2O)[C@@H]2C(CO)=CC[C@H]12 [GPA, Geniposidic acid] | 390 nM |  |  | 
QEPVSPKKKENALLRYLLDKDDTKD (also: biotinylated (position not given here)) [SRC2-3 biotinylated cofactor peptide] |  | 185 nM | 355000 nM | 533 nM
